# Publication PMC10942606
# T1: Pcf1_KER* (Schizosaccharomyces pombe, UniProt Q1MTN9 56-170, R147E;K150E;K154E;R161E;K168E)
# T1 sequence: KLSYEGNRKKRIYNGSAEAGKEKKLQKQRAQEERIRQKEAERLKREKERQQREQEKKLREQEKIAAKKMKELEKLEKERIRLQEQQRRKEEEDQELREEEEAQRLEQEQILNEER
# Target: T1, Pcf1_KER*
# Assay: MST
binder,measurement,value
"40 bp dsDNA, Alexa488 (dsDNA) DNA 1: ATCAATATCCACCTGCAGATACTACCAAAAGTGTATTTGG DNA 2: CCAAATACACTTTTGGTAGTATCTGCAGGTGGATATTGAT",apparent K (half saturation),12.2 ± 0.7 µM
